Where no end group is shown, it is not given here. [ ]: non-standard residue; d: D form. Bip(2'-Et-4'-OMe) = CCc1cc(OC)ccc1-c1ccc(C[C@H](N)C(=O)O)cc1; αMePhe(2,6-F2) = C[C@](N)(Cc1c(F)cccc1F)C(=O)O; αMePhe(2-F) = C[C@](N)(Cc1ccccc1F)C(=O)O; αMeBip(OMe) = alpha-methylated Bip(OMe); hhPhe = N[C@@H](CCCc1ccccc1)C(=O)O; αMeD = C[C@](N)(CC(=O)O)C(=O)O; αMeP = C[C@@]1(C(=O)O)CCCN1; αMeAPPA = not defined here; αMeS = C[C@](N)(CO)C(=O)O; Aib = CC(C)(N)C(=O)O

Sequences and labels used below:
B1: Seq. ID. No. 64 (peptide)
peptide: VH[αMeP]EGTFTS[αMeD][αMeBip(OMe)][hhPhe]-NH2
B2: Seq. ID. No. 34 (peptide)
peptide: VHAQGTFT[αMeS]D[αMeBip(OMe)][hhPhe]-NH2
B3: Seq. ID. No. 49 (peptide)
peptide: VHSQGT[αMePhe(2,6-F2)]T[αMeS]D[αMeBip(OMe)][hhPhe]-NH2
B4: Seq. ID. No. 84 (peptide)
peptide: VH[αMeP]QGTFTSD[Bip(2'-Et-4'-OMe)][αMeAPPA]
modifications: not fully specified (C-terminus); printed as VH-(αMe-Pro)-QGTFTSD-Bip(OMe)-(αMe-APPA); reading uncertain
B5: Seq. ID. No. 88 (peptide)
peptide: VHAEGTFTSD[Bip(2'-Et-4'-OMe)][αMeAPPA]
modifications: not fully specified (C-terminus); printed as VHAEGTFTSD-Bip(OMe)-(αMe-APPA); reading uncertain
B6: Seq. ID. No. 68 (peptide)
peptide: VH[αMeP]QGT[αMePhe(2-F)]TS[αMeD][αMeBip(OMe)][hhPhe]-NH2
B7: Seq. ID. No. 76 (peptide)
peptide: VH[αMeP]QGT[αMePhe(2,6-F2)]TS[αMeD][αMeBip(OMe)][hhPhe]
modifications: not fully specified (C-terminus)
B8: Seq. ID. No. 59 (peptide)
peptide: VH[Aib]QGTFTS[αMeD][αMeBip(OMe)][hhPhe]-NH2
B9: Seq. ID. No. 26 (peptide)
peptide: VHAQGT[αMePhe(2,6-F2)]TSD[αMeBip(OMe)][hhPhe]-NH2
B10: Seq. ID. No. 79 (peptide)
peptide: VH[Aib]EGT[αMePhe(2,6-F2)]TS[αMeD][αMeBip(OMe)][hhPhe]
modifications: not fully specified (C-terminus)
B11: Seq. ID. No. 63 (peptide)
peptide: VH[Aib]EGTFTS[αMeD][αMeBip(OMe)][hhPhe]-NH2
B12: Seq. ID. No. 17 (peptide)
peptide: VHSQGT[αMePhe(2-F)]TSD[αMeBip(OMe)][hhPhe]
modifications: not fully specified (C-terminus); printed as VHSQGT-(αMe-2FPhe)-TSD-(αMe-Bip(OMe))-(APPA)
B13: Seq. ID. No. 23 (peptide)
peptide: VH[Aib]EGT[αMePhe(2-F)]TSD[αMeBip(OMe)][hhPhe]-NH2
B14: Seq. ID. No. 44 (peptide)
peptide: VH[αMeP]QGT[αMePhe(2-F)]T[αMeS]D[αMeBip(OMe)][hhPhe]-NH2
B15: Seq. ID. No. 47 (peptide)
peptide: VH[Aib]EGT[αMePhe(2-F)]T[αMeS]D[αMeBip(OMe)][hhPhe]-NH2
B16: Seq. ID. No. 39 (peptide)
peptide: VH[Aib]EGTFT[αMeS]D[αMeBip(OMe)][hhPhe]-NH2
B17: Seq. ID. No. 30 (peptide)
peptide: VHAEGT[αMePhe(2,6-F2)]TSD[αMeBip(OMe)][hhPhe]-NH2
B18: Seq. ID. No. 19 (peptide)
peptide: VH[Aib]QGT[αMePhe(2-F)]TSD[αMeBip(OMe)][hhPhe]
modifications: not fully specified (C-terminus); printed as VH-Aib-QGT-(αMe-2FPhe)-TSD-(αMe-Bip(OMe))-(APPA)
B19: Seq. ID. No. 13 (peptide)
peptide: VH[Aib]EGTFTSD[αMeBip(OMe)][hhPhe]
modifications: not fully specified (C-terminus); printed as VH-Aib-EGTFTSD-(αMe-Bip(OMe))-(APPA)

In the first assay the target is human GLP-1 receptor (human, UniProt P43220 24-463). Put plainly: cell-based or functional assay.
Regarding B1, the “cAMP release, % activity with respect to control, at 1 nM” value (from here on “cAMP release, % activity … at 1 nM”) is 45 % of control; the “cAMP release, % activity with respect to control, at 10 nM” value (“cAMP release, % activity … at 10 nM” for short) was 84 % of control; the “cAMP release, % activity with respect to control, at 100 nM” value (from here on “cAMP release, % activity … at 100 nM”) is 90 % of control; the “cAMP release, % activity with respect to control, at 1 µM” value (shortened to “cAMP release, % activity … at 1 µM”) was 99 % of control. Moreover, the “cAMP release, % activity with respect to control, at 10 µM” value (from here on “cAMP release, % activity … at 10 µM”) was 99 % of control.
B2: the “cAMP release, % activity … at 1 nM” value is 99 % of control; the “cAMP release, % activity … at 10 nM” value is 99 % of control; the “cAMP release, % activity … at 100 nM” value is 99 % of control; the “cAMP release, % activity … at 1 µM” value was 99 % of control. Moreover, the “cAMP release, % activity … at 10 µM” value is 99 % of control.
Regarding B3, the “cAMP release, % activity … at 1 nM” value was 38 % of control; the “cAMP release, % activity … at 10 nM” value was 78 % of control; the “cAMP release, % activity … at 100 nM” value is 86 % of control; the “cAMP release, % activity … at 1 µM” value was 95 % of control. Moreover, the “cAMP release, % activity … at 10 µM” value is 98 % of control.
On the same counts, the results for B4 are 40 % of control, 81 % of control, 87 % of control, 95 % of control and 98 % of control.
On the same counts, the results for B5 are 38 % of control, 77 % of control, 85 % of control, 94 % of control and 97 % of control.
For B6, the “cAMP release, % activity … at 1 nM” value was 40 % of control; the “cAMP release, % activity … at 10 nM” value was 81 % of control; the “cAMP release, % activity … at 100 nM” value was 87 % of control; the “cAMP release, % activity … at 1 µM” value is 95 % of control. Also, the “cAMP release, % activity … at 10 µM” value is 98 % of control.
On the same counts, the results for B7 are 66 % of control, 97 % of control, 99 % of control, 99 % of control and 99 % of control.
In the case of B8, the “cAMP release, % activity … at 1 nM” value was 39 % of control; the “cAMP release, % activity … at 10 nM” value is 80 % of control; the “cAMP release, % activity … at 100 nM” value was 88 % of control; the “cAMP release, % activity … at 1 µM” value is 96 % of control. Also, the “cAMP release, % activity … at 10 µM” value is 99 % of control.
Consider B9, for which the “cAMP release, % activity … at 1 nM” value was 99 % of control; the “cAMP release, % activity … at 10 nM” value was 99 % of control; the “cAMP release, % activity … at 100 nM” value is 99 % of control; the “cAMP release, % activity … at 1 µM” value was 99 % of control. The “cAMP release, % activity … at 10 µM” value was 99 % of control.
B10: the “cAMP release, % activity … at 1 nM” value was 69 % of control; the “cAMP release, % activity … at 10 nM” value was 98 % of control; the “cAMP release, % activity … at 100 nM” value is 99 % of control; the “cAMP release, % activity … at 1 µM” value is 99 % of control. Also, the “cAMP release, % activity … at 10 µM” value was 99 % of control.

The target of the next assay is human glucagon receptor (human, UniProt P47871 26-477). Put plainly: cell-based or functional assay.
human glucagon receptor, sequence (P47871 26-477): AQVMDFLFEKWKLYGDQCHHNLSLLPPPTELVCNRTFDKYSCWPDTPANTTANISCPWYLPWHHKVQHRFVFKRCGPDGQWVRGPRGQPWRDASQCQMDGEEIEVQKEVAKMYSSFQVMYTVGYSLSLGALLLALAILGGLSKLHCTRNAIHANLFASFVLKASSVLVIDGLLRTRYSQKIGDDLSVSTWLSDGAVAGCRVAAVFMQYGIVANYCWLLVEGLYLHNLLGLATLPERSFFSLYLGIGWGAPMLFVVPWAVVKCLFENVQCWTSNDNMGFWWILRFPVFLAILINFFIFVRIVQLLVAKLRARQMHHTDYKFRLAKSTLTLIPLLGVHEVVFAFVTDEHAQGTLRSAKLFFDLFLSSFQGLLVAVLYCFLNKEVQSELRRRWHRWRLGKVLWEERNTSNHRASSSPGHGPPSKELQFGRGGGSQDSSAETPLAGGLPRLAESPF
As to B11, the “cAMP production (pmol/ml/µg prt) with saturated glucagon peptide, at 1 nM” value (from here on “cAMP production (pmol/ml/µg prt) … at 1 nM”) was found to be 20 pmol/ml/µg prt; the “cAMP production (pmol/ml/µg prt) with saturated glucagon peptide, at 10 nM” value (“cAMP production (pmol/ml/µg prt) … at 10 nM” for short) was 18 pmol/ml/µg prt; the “cAMP production (pmol/ml/µg prt) with saturated glucagon peptide, at 100 nM” value (from here on “cAMP production (pmol/ml/µg prt) … at 100 nM”) was 16 pmol/ml/µg prt; the “cAMP production (pmol/ml/µg prt) with saturated glucagon peptide, at 1 µM” value (shortened to “cAMP production (pmol/ml/µg prt) … at 1 µM”) came out at 14 pmol/ml/µg prt. Also, the “cAMP production (pmol/ml/µg prt) with saturated glucagon peptide, at 10 µM” value (from here on “cAMP production (pmol/ml/µg prt) … at 10 µM”) stood at 12 pmol/ml/µg prt.
As to B12, the “cAMP production (pmol/ml/µg prt) … at 1 nM” value was found to be 6 pmol/ml/µg prt; the “cAMP production (pmol/ml/µg prt) … at 10 nM” value is 5 pmol/ml/µg prt; the “cAMP production (pmol/ml/µg prt) … at 100 nM” value was 2 pmol/ml/µg prt; the “cAMP production (pmol/ml/µg prt) … at 1 µM” value was 0 pmol/ml/µg prt. Further, the “cAMP production (pmol/ml/µg prt) … at 10 µM” value turned out to be 0 pmol/ml/µg prt.
On to B13, for which the “cAMP production (pmol/ml/µg prt) … at 1 nM” value is 10 pmol/ml/µg prt; the “cAMP production (pmol/ml/µg prt) … at 10 nM” value amounted to 8 pmol/ml/µg prt; the “cAMP production (pmol/ml/µg prt) … at 100 nM” value stood at 6 pmol/ml/µg prt; the “cAMP production (pmol/ml/µg prt) … at 1 µM” value came out at 2 pmol/ml/µg prt. The “cAMP production (pmol/ml/µg prt) … at 10 µM” value is 0 pmol/ml/µg prt.
On the same counts, the results for B14 are 5 pmol/ml/µg prt, 3 pmol/ml/µg prt, 0 pmol/ml/µg prt, 0 pmol/ml/µg prt and 0 pmol/ml/µg prt.
On the same counts, the results for B15 are 9 pmol/ml/µg prt, 6 pmol/ml/µg prt, 5 pmol/ml/µg prt, 3 pmol/ml/µg prt and 0 pmol/ml/µg prt.
As for B16, the “cAMP production (pmol/ml/µg prt) … at 1 nM” value is 17 pmol/ml/µg prt; the “cAMP production (pmol/ml/µg prt) … at 10 nM” value turned out to be 15 pmol/ml/µg prt; the “cAMP production (pmol/ml/µg prt) … at 100 nM” value was found to be 12 pmol/ml/µg prt; the “cAMP production (pmol/ml/µg prt) … at 1 µM” value amounted to 8 pmol/ml/µg prt. For the same molecule, the “cAMP production (pmol/ml/µg prt) … at 10 µM” value came to 6 pmol/ml/µg prt.
On the same counts, the results for B17 are 5 pmol/ml/µg prt, 3 pmol/ml/µg prt, 0 pmol/ml/µg prt, 0 pmol/ml/µg prt and 0 pmol/ml/µg prt.
On the same counts, the results for B18 are 15 pmol/ml/µg prt, 12 pmol/ml/µg prt, 8 pmol/ml/µg prt, 4 pmol/ml/µg prt and 2 pmol/ml/µg prt.
On the same counts, the results for B19 are 20 pmol/ml/µg prt, 18 pmol/ml/µg prt, 16 pmol/ml/µg prt, 14 pmol/ml/µg prt and 12 pmol/ml/µg prt.

Source of the values: patent publication US20120264685A1 (priority 2009, published 2012).
